In the Immune Epitope Database (IEDB):

How the values were obtained:
Assay in all cases: IEDB peptide-MHC binding, purified MHC/competitive/radioactivity; ≥ and ≤ were set here for values at or beyond the usual limits of such assays
HLA-A*02:03 = target: HLA-A*02:03
HLA-A*02:02 = target: HLA-A*02:02
HLA-A*02:01 = target: HLA-A*02:01
HLA-A*02:06 = target: HLA-A*02:06
HLA-A*68:02 = target: HLA-A*68:02
[1] = source organism: Hepacivirus hominis
[2] = source organism: Vaccinia virus WR
[3] = source organism: Mammarenavirus choriomeningitidis

Row | Sequence | IC50 (HLA-A*02:03; [2]) [nM] | IC50 (HLA-A*02:02; [2]) [nM] | IC50 (HLA-A*02:01; [2]) [nM] | IC50 (HLA-A*02:06; [2]) [nM] | IC50 (HLA-A*68:02; [2]) [nM] | further results
1 | YMLVLAEALI | – | – | – | – | – | IC50 (HLA-A*02:03; [1]): 228 nM; IC50 (HLA-A*02:02; [1]): 107 nM; IC50 (HLA-A*02:01; [1]): 152 nM; IC50 (HLA-A*02:06; [1]): 512 nM; IC50 (HLA-A*68:02; [1]): 974 nM
2 | NTVGMSIVCI | 1540 | 3020 | 3260 | 1210 | 198 | –
3 | EAAAATCALV | 248 | 1810 | 318 | 60 | 0.21 | –
4 | KVEKYLPEV | 171 | 1050 | 17 | 116 | 1520 | –
5 | NVLAWLYAA | – | – | – | – | – | IC50 (HLA-A*02:03; source organism: SARS-CoV1): 15 nM; IC50 (HLA-A*02:02; source organism: SARS-CoV1): 7.3 nM; IC50 (HLA-A*02:01; source organism: SARS-CoV1): 9.2 nM; IC50 (HLA-A*02:06; source organism: SARS-CoV1): 1.6 nM; IC50 (HLA-A*68:02; source organism: SARS-CoV1): 39 nM
6 | TLISSDGARV | 133 | 142 | 621 | 1220 | 542 | –
7 | FLAFLLFLV | – | – | – | – | – | IC50 (HLA-A*02:03; source organism: SARS-CoV1): 58 nM; IC50 (HLA-A*02:02; source organism: SARS-CoV1): 1.8 nM; IC50 (HLA-A*02:01; source organism: SARS-CoV1): 8.3 nM; IC50 (HLA-A*02:06; source organism: SARS-CoV1): 9 nM; IC50 (HLA-A*68:02; source organism: SARS-CoV1): 66 nM
8 | HLMSDNPKA | 279 | 57 | 45 | 523 | 1100 | –
9 | NLYKVYNGI | 62 | 408 | 451 | 817 | 1610 | –
10 | GTIILNKIV | 3400 | 1190 | 3890 | 1430 | 926 | –
11 | KASTISWMM | 556 | 429 | 1410 | 797 | 2940 | –
12 | HIKTIAVSV | 9.6 | 3080 | 1050 | 1550 | 381 | –
13 | LLFLVLIML | – | – | – | – | – | IC50 (HLA-A*02:03; source organism: SARS-CoV1): 1370 nM; IC50 (HLA-A*02:02; source organism: SARS-CoV1): 154 nM; IC50 (HLA-A*02:01; source organism: SARS-CoV1): 294 nM; IC50 (HLA-A*02:06; source organism: SARS-CoV1): 573 nM; IC50 (HLA-A*68:02; source organism: SARS-CoV1): 1250 nM
14 | WLMWFIISIV | – | – | – | – | – | IC50 (HLA-A*02:03; source organism: SARS-CoV1): 4.7 nM; IC50 (HLA-A*02:02; source organism: SARS-CoV1): 246 nM; IC50 (HLA-A*02:01; source organism: SARS-CoV1): 33 nM; IC50 (HLA-A*02:06; source organism: SARS-CoV1): 107 nM; IC50 (HLA-A*68:02; source organism: SARS-CoV1): 2890 nM
15 | VLIAGIILLI | 35 | 8.8 | 89 | 1020 | 33 | –
16 | SMMSFSAAL | – | – | – | – | – | IC50 (HLA-A*02:03; [1]): 15 nM; IC50 (HLA-A*02:02; [1]): 5.1 nM; IC50 (HLA-A*02:01; [1]): 13 nM; IC50 (HLA-A*02:06; [1]): 106 nM; IC50 (HLA-A*68:02; [1]): 493 nM
17 | GIYNCCESNI | 140 | 68 | 331 | 290 | 3800 | –
18 | RIITILQDIV | 209 | 595 | 526 | 95 | 290 | –

Row | Sequence | IC50 (HLA-A*02:03; [2]) [nM] | IC50 (HLA-A*02:02; [2]) [nM] | IC50 (HLA-A*02:01; [2]) [nM] | IC50 (HLA-A*02:06; [2]) [nM] | IC50 (HLA-A*68:02; [2]) [nM] | further results
19 | MVMCGGSLYV | – | – | – | – | – | IC50 (HLA-A*02:03; source organism: SARS-CoV1): 10 nM; IC50 (HLA-A*02:02; source organism: SARS-CoV1): 15 nM; IC50 (HLA-A*02:01; source organism: SARS-CoV1): 14 nM; IC50 (HLA-A*02:06; source organism: SARS-CoV1): 13 nM; IC50 (HLA-A*68:02; source organism: SARS-CoV1): 6.7 nM
20 | LLWFLTGTFV | 9.2 | 2.4 | 0.32 | 18 | 0.13 | –
21 | ALMDLLMFS | – | – | – | – | – | IC50 (HLA-A*02:03; [3]): 104 nM; IC50 (HLA-A*02:02; [3]): 0.94 nM; IC50 (HLA-A*02:01; [3]): 2.4 nM; IC50 (HLA-A*02:06; [3]): 14 nM; IC50 (HLA-A*68:02; [3]): 2990 nM
22 | LALKNSQAEL | 333 | 741 | 3760 | 1250 | 3660 | –
23 | SLVITYCLVT | 566 | 286 | 373 | 824 | 447 | –
24 | MVTDKTAYI | 2 | 17 | 227 | 25 | 3.2 | –
25 | NMDWRSLTQV | 17 | 100 | 4.2 | 1.7 | 826 | –
26 | AIAACAMLLV | – | – | – | – | – | IC50 (HLA-A*02:03; source organism: SARS-CoV1): 32 nM; IC50 (HLA-A*02:02; source organism: SARS-CoV1): 5.9 nM; IC50 (HLA-A*02:01; source organism: SARS-CoV1): 36 nM; IC50 (HLA-A*02:06; source organism: SARS-CoV1): 78 nM; IC50 (HLA-A*68:02; source organism: SARS-CoV1): 1430 nM
27 | FITVLTSVDI | 237 | 1420 | 603 | 1270 | 1240 | –
28 | TTLLNETAKV | 0.17 | 1640 | 2880 | 1650 | 237 | –
29 | TICLKNEGV | 120 | 494 | 547 | 311 | 5.8 | –
30 | YMLFTKFFYL | – | – | – | – | – | IC50 (HLA-A*02:03; source organism: SARS-CoV1): 46 nM; IC50 (HLA-A*02:02; source organism: SARS-CoV1): 48 nM; IC50 (HLA-A*02:01; source organism: SARS-CoV1): 5.1 nM; IC50 (HLA-A*02:06; source organism: SARS-CoV1): 20 nM; IC50 (HLA-A*68:02; source organism: SARS-CoV1): 9.9 nM
31 | TIDAINKCV | 634 | 90 | 783 | 406 | 222 | –
32 | EVNDTHYTV | 115 | 133 | 3060 | 4770 | 0.5 | –
33 | NSLILLECFV | – | – | – | – | – | IC50 (HLA-A*02:03; [3]): 47 nM; IC50 (HLA-A*02:02; [3]): 1.2 nM; IC50 (HLA-A*02:01; [3]): 7.4 nM; IC50 (HLA-A*02:06; [3]): 4.2 nM; IC50 (HLA-A*68:02; [3]): 43 nM
34 | VLMVDSFDPV | – | – | – | – | – | IC50 (HLA-A*02:03; [1]): 12 nM; IC50 (HLA-A*02:02; [1]): 13 nM; IC50 (HLA-A*02:01; [1]): 33 nM; IC50 (HLA-A*02:06; [1]): 31 nM; IC50 (HLA-A*68:02; [1]): 1520 nM
35 | TLNTLITLIL | 7.1 | 150 | 45 | 826 | 1140 | –
